Here are results for two substances from patent US20150258217A1, “Methods of Synthesizing and Using Peg-Like Fluorochromes” (THE GENERAL HOSPITAL CORPORATION, priority 2012, published 2015).

For series [1] the following is noted: mouse, in vivo. The protocol: At two hours post injection, agent is in the blood and interstitium. By 24 hours post injection, tumors are becoming apparent as agent is being cleared. At 48 hours, labeling is highly tumor selective. […] By surface fluorescence, as with SPECT, labeling is highly tumor selective at 48 hours. Biodistribution as organ radioactivity concentrations FIG. 26(c) and total organ radioactivity FIG. 26(d) were obtained by dissection and ^111In counting at 24 hours and 48 hours post injection. Even at 48 hours post injection some 7.5% of injected dose is in the blood, with less than 5% in liver, even though the diameter of PN(783)10.0 exceeds that of albumin (6.7 nm). Data are means and standard deviations. […] By 72 hours, some 17% of injected dose was retained, approximately half of which was still in the blood based on FIG. 26d.

Another series deals with HT-29 tumor. The format is in vivo, mouse. An excerpt:
A Kodak FX multispectral imaging system was used (Carestream Molecular Imaging, Rochester, N.Y.). Excitation at multiple wavelengths (620, 650, 690, 710, 720, 730, 750 and 760 nm) with the emission at 830 nm was setup for IR-783 spectrum; Excitation at multiple wavelengths (420, 440, 460, 480, 510, 520, 530, and 540 nm) with the emission at 600 nm was setup for Cy3 spectrum; Excitation at multiple wavelengths (450, 470, 510, 520, 530, 540, 550, 570, and 590 nm) with the emission at 700 nm was setup for mCherry; with manufacturer's software to separate (unmix) the IR-783 spectrum, Cy3 spectrum, or mCherry spectrum from skin autofluorescence and chlorophyll fluorescence from food. X-ray images were taken after fluorescence images. Animals were anesthetized with 2% isoflurane with O2 flow (2 I/min) during imaging.
Female nude mice (25-30 g; 6-8 weeks old; nu/nu) were anesthetized with 2% isoflurane/O2. HT-29 or mCherry-HT-29 cells were detached, pelleted and 200 μl of cell suspension containing 10^6 cells in Matrigel (BD Bioscience) was injected subcutaneously into right and left shoulders. Tumors were allowed to grow 5-7 days before experiments.
The imaging was performed by Triumph II multimodality imaging system (Gamma Medica Ideas, LLC) comprising XSPECT with four CZT (Cadmium Zink Telluride) detectors and X-O CT with CMOS detector. SPECT data of the ^111In-labeled compound was acquired for 60 minutes using 5-pinhole collimators and processed with 3D-OSEM algorithm using 4 subsets and 5 iterations. 3-dimensional CT data was processed with modified Feldkamp software. […] Animals were under isoflurane anesthesia (1.5%) with O2 flow (1.5 l/min) and kept warm during the imaging with a heated animal bed.
150 μl of ^111In-labeled PN(783)10 (400 μCi, ˜2 nmole) were injected to tumor-bearing animals by tail vein (IV). 24 hours or 48 hours later, animals were sacrificed, and tumors, blood, liver, spleen, stomach, kidneys, small intestine, lung, heart, tail, fat, and muscle, were collected. Radioactivity was measured with Perkin Elmer, Wizard2 2480 gamma counter.

Series [2] relates to GFP expressing BT-20 breast carcinoma xenograft. Kind of series: Tumor surface fluorescence after peritumoral (DMR) or IV injection. The format is in vivo, mouse. The procedure: Day 1, BT-20 cells were planted into 24-well plate at 750,000 cells/well in culture medium (EMEM with 10% FBS). Day 2, the old culture medium was replaced with new culture medium containing lenti-virus (1×10^8 particles/mL) and protamine sulphate (American Pharmaceutical Partners, Los Angelus, Calif.; 10 mg/mL; 1:500 of total volume of medium). Day 3, after 16 hours of transfection, medium was changed to the culture medium (EMEM with 10% FBS). 8 hours later, green cells could be seen via fluorescence microscope.
All animal experiments were approved by the Institutional Review Committee of Massachusetts General Hospital. Female nude mice (25-30 g; 6-8 weeks old; nu/nu; Cox 7, Massachusetts General Hospital, Boston, Mass.) were anesthetized with isoflurane/O2. Tumor cell implantation was performed both sides around the shoulder. 200 μl of cell suspension containing 10^6 cells in Matrigel (BD) was injected subcutaneously. Tumor cells were inoculated for 7 to 10 days.
The diffusion and molecular retention required of the DMR technique with a tumor bearing model were investigated. We peritumorally injected the RGD probe into an animal bearing two GFP expressing BT-20 breast carcinomas and monitored tumor GFP fluorescence and probe fluorescence as a function of time after injection. The non-integrin binding RAD probe was injected into a second animal also bearing two tumors. Overlaying purple probe fluorescence over green GFP yields white. […] Tumor surface fluorescence from both probes was quantified by the use of solution standards.
In FIG. 8a), two animals bearing two tumors were PT injected with the RGD probe or RAD probe as indicated and surface fluorescence images were obtained. […] In FIG. 8b), quantitation of tumor surface fluorescence after injections of the RGD or RAD probes as above. Surface fluorescence was quantified through the use of standard solutions.
To compare the DMR and intravenous (IV) methods, surface fluorescence images of tumor GFP and RGD probe fluorescence were obtained with skin removed, and overlays from the two signals obtained. With both DMR and IV administration, probe fluorescence extended beyond tumor GFP margins to a stromal area beyond the tumor. However, tumor fluorescence was far higher with DMR than IV injection, even though dose was far lower (50 pmoles/mouse by DMR versus 2000 pmoles/mouse by IV).
In FIG. 9a), skin covering GFP-BT-20 tumor was removed. Shown are visible GFP fluorescence, probe (CyAL5.5) fluorescence, and the overlay of GFP and probe fluorescence plus an X-ray image. Green GFP plus purple CyAL5.5 fluorescence yielded a white overlaid image. In FIG. 9b), with DMR or IV, probe fluorescence included a stromal zone of integrin binding surrounding the tumor was seen. […]

The nature of series [3]: Probe volume determination by FPLC (Superdex 75, globular protein standards). The format is physicochemical. The protocol: Size (volume) was determined by FPLC using an ÄKTA Purifier 10 and Superdex™ 75 10/300 GL column (GE Healthcare Lifesciences) with a running buffer of 0.05 M sodium phosphate, 0.15 M NaCl (0.1% Tween, pH 7.2) and flow rate of 0.5 ml/min. The protein standards (Gel Filtration Calibration Kit LMW, code no. 28-4038-41, GE Healthcare) (0.3 mg/ml, mixture of Aprotinin, Ribonuclease A, Ovalbumin, and Conalbumin) and Blue Dextran 2000 were used. To obtain volumes, Mr (apparent molecular weight based on size exclusion retention) was plotted versus Kav. Kav=(Ve−Vo)/[…], Vt=total volume, Ve=elution volume, Vo=void volume.

A short description of series [4]: Quantum yield determination. Type of series: physicochemical. To be noted: Table 4, DMR probes. The protocol: Quantum yields were determined as described in Demas et al., “Measurement of photoluminescence quantum yields. Review”, Journal of Physical Chemistry 75, 991-1024 (1971), and Shao et al., “Facile Synthesis of Monofunctional Pentamethine Carbocyanine Fluorophores. Dyes and pigments: an international journal 90, 119-122 (2011). For IR-783 a reference quantum yield of 0.043 was used (see Li et al., “Synthesis and characterization of glucosamine-bound near-infrared probes for optical imaging”, Organic letters 8, 3623-3626, 2006); for fluorescein a reference quantum yield was […] (see Sjoback et al., “Absorption and florescence properties of fluorescein”, Spectrohimica Acta Part A 51, L7-L21, 1995). For Cy3 a reference quantum yield of 0.31 was used (Luminprobe Inc). For PN(783)'s, excitation was at 730 nm and emission spectra were recorded from 765 nm to 870 nm in PBS and maximum emission used. For PN(545)'s, excitation was at 515 nm and emission spectra were recorded from 538 nm to 700 nm in PBS and maximum emission used. For PN(497)'s, excitation was at 450 nm and emission spectra were recorded from 475 nm to 620 nm in PBS and maximum emission used. Absorbance of each probe was adjusted less than 0.1. Measurements were made in triplicate and are expressed as mean±SD.

For the substance “(^111In-DOTA)Lys(PEG30 kDa)-Cys(IR-783) [^111In-PN(783)10.0]”, in series [1], the “Whole body radioactivity half-life” value amounted to 7.8 h; the “Whole body radioactivity, % of injected dose” value came to 13.75±0.74%; the “^111In-PN(783)10 elimination half-life” value worked out at 7.8 h. In addition, the tumor concentration with HT-29 tumor (HT29 tumor, 48 hours post injection, IV) is reported as 7.28±0.93 % ID/gm. Also, in the series with HT-29 tumor (mouse, in vivo), the “injected dose in the kidney” value is recorded as 0.44±0.02% and the “injected dose in the liver” value worked out at 4.71±0.38%.

In the case of “DOTA-Lys(CyAL5.5)-Lys(5 kDa PEG)- βAla -Lys(sPEG-RGD) [Compound 7a]”, the “tumor retention of probe fluorescence after peritumoral injection” value in series [2] (BT-20 tumors, 24 hours post injection) is recorded as “retained by the tumor”. Moreover, the Tumor fluorescence in series [2] (DMR, 50 pmoles/mouse) was found to be 15.0 au; in series [2] (IV, 2000 pmoles/mouse), 1.5 au. Besides, in series [3] (FPLC, globular protein equivalent volume), the “Equiv. Vol.” value was found to be 25 kDa. In series [3] (Table 4, DMR probes), the “Molecular Volume” value is 20-30 kDa. In series [4], the “Quantum Yield” value was determined as 0.20.
